# In patent WO2021228904A1 (dated 2021):
# Experiments:
# [1] = molecular target: T1, stabilized prefusion SARS-CoV-2 S ectodomain (SARS-CoV-2 (Wuhan-Hu-1), UniProt P0DTC2 15-1138); experiment: cell-based or functional assay
# [2] = molecular target: T1, stabilized prefusion SARS-CoV-2 S …; experiment: SPR
# [3] = molecular target: T1, stabilized prefusion SARS-CoV-2 S …; experiment: not named there; ELISA in Example 4
Binder,"IC50, neutralization of live SARS-CoV-2 virus [1] [pM]",Kd [2] [pM],binding result [3]
"COVA1-18 (antibody, V domains shown) VH: EVQLVESGGGLVQPGGSLRLSCAASGFTVSSNYMSWVRQAPGKGLEWVSVIYSGGSTYYADSVKGRFTISRDNSKNTLYLQMNSLRAEDTAVYYCARVEWAAAGTFYWGQGTLVTVSS VL: QSALTQEPSLTVSPGGTVTLTCGSSTGAVTSGHYPYWFQQKPGQAPRTLIYDTSNKRSWTPARFSGSLLGGKAALTLSGAQPEDEAEYYCLLSYSGVWVFGGGTKLTVL",67,≤ 1000,
"SEQ ID NOs: 477/481 (HCVR/LCVR) (antibody, V domains shown) VH: QVQLVESGGGVVQPGRSLRLSCAASGFTFSSYAMHWVRQAPGKGLEWVAVISYDGSNKYYADSVKGRFTISRDNSKNTLYLQMNSLRAEDTAVYYCARSASGSYYGAFDYWGQGTLVTVSS VL: QTVVTQPASVSGSPGQSITISCTGTSSDVGGYNYVSWYQQHPGKAPKLMIYDVSNRPSGVSNRFSGSKSGNTASLTISGLQAEDEADYYCSSYTSSSTLGLYVFGTGTKVTVL",,,binds
"SEQ ID NOs: 509/513 (HCVR/LCVR) (antibody, V domains shown) VH: QVQLQQSGPGLVKPSETLPLTCTVSGGSISSSSYYWGWIRQPPGKGLEWIGSVFYSGSTYYNPSLKSRVTISVDTSKNQLSLKLSSVTAADTAVYYCARQVRQWLEDDAFDIWGQGTMVTVSS VL: DIQLTQSPSSLSASVGDRVTITCRASQGIRNDLGWYQQKPGKAPKRLIYAASSLQSGVPSRFSGSGSGTEFTLTISSLQPEDFATYYCLQHNSYPLTFGGGTKVDIK",,,binds
"SEQ ID NOs: 525/529 (HCVR/LCVR) (antibody, V domains shown) VH: QVQLQESGPGLVKPSGTLSLTCAVSGGSISSSNWWSWVRQPPGKGLEWIGEIYHSGSSNYNPSLKSRVTISVDKSKNQFSLKLNSVTAADTAVYYCAGRYCSGGRCGWFDPWGQGTLVTVSS VL: QSVLTQPASVSGSPGQSITISCTGTSSDVGSYNLVSWYQQHPGKAPKLMIYEASKRPSGISNRFSGSKSGNTASLTISGLQAEDEADYYCCSYAGSSTWVFGGGTKPTVL",,,binds
"SEQ ID NOs: 549/553 (HCVR/LCVR) (antibody, V domains shown) VH: QVQLVQPGAEVKKPGASVKVSCKASGYTFTSYGISWVRQAPGQGLEWMGWISAYNGDTNYAQKLQGRVTMTTDTSTSTAYMELRSLKSDDTAVYYCARFDYGYPYSSWSVLSIDYWGQGTLVTVSS VL: DIVMTQSPSSLSASVGDRVTITCRASQGIRNDLGWYQQKPGKAPKRLIYAASSLQSGVPSRFSGSGSGTEFTLTISSLQPEDFATYYCLQHNSYPLTFGGGTKLEIK",,,binds
"SEQ ID NOs: 581/585 (HCVR/LCVR) (antibody, V domains shown) VH: EVQLVESGGGLVQPGRSLRLSCAASGFTFDDYAMHWVRQAPGKGLEWVSGISWNSGSIGYADSVKGRFTISRDSAKNSLYLQMNSLRAEDTALYYCAKVATYYYDRSGYYYGGALDYWGQGTLVTVSS VL: not shown",,,binds
"SEQ ID NOs: 621/625 (HCVR/LCVR) (antibody, V domains shown) VH: QVQLVQSGAEVKKPGASVKVSCKVSGYTLTELSMHWVRQAPGKGLEWMGGFDPEDGETIYAQKFQGRVTMTEDTSTDTAYMELSSLRSEDTAVYYCATAYSVDTAMVRGVGYWGQGTLVTVSS VL: not shown",,,binds
"SEQ ID NOs: 637/641 (HCVR/LCVR) (antibody, V domains shown) VH: QVQLVESGGGLVQPGRSLRLSCAASGFTFDDYAMHWVRQAPGKGLEWVSGISWNSGSIGYADSVKGRFTISRDNAKNSLYLQMNSLRAEDTALYYCAKAEPEVGGYDYYMDVWGKGTMVTVSS VL: not shown",,,binds
"SEQ ID NOs: 653/657 (HCVR/LCVR) (antibody, V domains shown) VH: EVQLVESGGGLVQPGRSLRLSCAASGFTFDDYAMHWVRQAPGKGLEWVSGISWNSGSIGYADSVKGRFTISRDNAKNSLYLQMNSLRAEDTALYYCAKMGPDPAHDYGRKNDAFDIWGQGTMVTVSS VL: DIVMTQSPSSLSASVGDRVTITCRASQSMSSYLNWYQQKPGKAPKLLIYAASSLQSGVPSRFSGSGSGTDFTLTISSLQPEDFATYYCQQSYSTLTFGGGTKLEIK",,,binds
"SEQ ID NOs: 41/45 (HCVR/LCVR) (antibody, V domains shown) V domain 1: EVQLVQSGGGLVQPGRSLRLSCAASGFTFGEYAMHWVRQAPGKGLEWVSGISWNSGSIDYADSVKGRFTISRDNAKNSLYLQMNSLRAEDTALYYCAKDMGEAVAGTHYGMDVWGQGTMVTASS V domain 2: QSALTQPPSVSVSPGQTASIPCSGDKLGDIYACWYQQKPGQSPVLVIYQDTKRPSGIPERFSGSNSGNTATLTISGTQAMDEADYYCQAWGSTTAKVFGGGTKLTVP",,,binds
"SEQ ID NOs: 57/61 (HCVR/LCVR) (antibody, V domains shown) VH: not shown VL: QSVLTQPASVSGSPGQSITISCTGTSSDVGGYNYVSWYQQHPGKAPKLMIYDVSNRPSGVSNRFSGSKSGNTASLTISGLQAEDEADYYCSSYTSSSTRHWVFGGGTKLTVL",,,binds
"SEQ ID NOs: 65/69 (HCVR/LCVR) (antibody, V domains shown) VH: QLQLVESGPGLVKPSETLSLTCTVSGGSISSYFWSWIRQPPGKGLEWIGYIYYSGSTNYNPSLKSRVTISVDTSKNQFSLKLSSVTAADTAVYYCARHSQGWLQQAVAFDIWGQGTMVTVSS VL: not shown",,,binds
"001_P1G11 (antibody, V domains shown) VH: EVQLVQSGTEVKKPGASVKVSCKASGYTFPGYYIHWVRQAPGQGLEWMGWINPNSGVAKSAQKFQGRVTMTRDSSISTVYLDVTSDDTAVYYCARDLVWATVSGTMDVWGQGTTVTVSS VL: QSALTQPPSASGSPGQSVTISCTGTSSDIGTYNYVSWYQQHPGKAPKLMIYEVTKRPSGVPDRFSGSKSGNTASLTVSGLQADDEGDYYCSSYVGNNNWVFGGGTKLTVL",,,binds
"SEQ ID NOs: 353/357 (HCVR/LCVR) (antibody, V domains shown) VH: EVQLVQSGAEVKKPGSSVKVSCKASGGTFSSYAISWVRQAPGQGLEWMGGIIPIFGTTNYAQKFQGRVTITTDESTSTAYMELSSLRSEDTAVYYCARVYSYDSSGYYLEYWGQGTRVTVSS VL: EIVLTQSPATLSLSPGERATLSCRASQSVSSYLAWYQQKPGQAPRLLIYDASNRATGIPARFSGSGSGTDFTLTISSLEPEDFAVYYCQQRSNWPPSITFGQGTRLEIK",,,binds
"SEQ ID NOs: 421/425 (HCVR/LCVR) (antibody, V domains shown) VH: EVQLVQSGAEVKKPGASVKVSCKASGYTFTSYDINWVRQATGQGLEWMGWMNPNSGNTGYAQKFQGRVTMTRNTSISTAYMELSSLRSEDTAVYYCARVVGSSWYPVDAFDIWGQGTRVTVSS VL: QSVLTQPASVSGSPGQSITISCTGTSSDVGGYNYVSWYQQHPGKAPKLMIYDVSNRPSGVSNRFSGSKSGNTASLTISGLQAEDEADYYCSSYTSSSTLVVFGGGTKLTVL",,,binds
"SEQ ID NOs: 461/465 (HCVR/LCVR) (antibody, V domains shown) VH: EVQLVESGAEVKKPGSSVKVSCKASGGTFSSYAISWVRQAPGQGLEWMGGIIPIFGTANYAQKFQGRATITTDESTSTAYMELSSLGSEDTAVYYCARTHSYDNSGQYFDYWGQGTMVTVSS VL: DIVMTQSPATLSLSPGERATLSCRASQSVSSFLAWYQQKPGQAPRLLIYDASNRATGIPARFSGSGSGTDFTLTISSLEPEDFAVYYCQQRSNWPPRLTFGGGTKVDIK",,,binds
"SEQ ID NOs: 557/561 (HCVR/LCVR) (antibody, V domains shown) VH: EVQLVESGGGVVQPGRSLRLSCAASGFTFSSYAMHWVRQAPGKGLEWVAVISYDGSYKYYADSVKGRFTISRDNSKNTLYLQMNSLTAEDTAVYYCAREGSRQWLVIYFDYWGQGTLVTVSS VL: AIRMTQSPSSLSASVGDRVTITCRASQSISSYLNWYQQKPGKAPKLLIYAASSLQSGVPSRFSGSGSGTDFTLTISSLQPEDFATYYCQQSYTTFIYTFGQGTKLEIK",,,binds
"SEQ ID NOs: 605/609 (HCVR/LCVR) (antibody, V domains shown) VH: not shown VL: QTVVTQPPSVSVSPGQTARITCSGDALPKQYAYWYQQKPGQAPVLVIYKDSERPSGIPERFSGSSSGTTVTLTISGVQAEDEADYYCQSADSSGTYRVFGGGTKLTVL",,,binds
"SEQ ID NOs: 661/665 (HCVR/LCVR) (antibody, V domains shown) VH: EVQLVESRAEMKKPGESLKISCKGSGYTFTNHWIAWVRQMPGKGLEWMGIIYPGDSDTRYSPSFEGQVTISADKSISTAYLQWSSLKASDTAMYYCARRGYTYGADFYGLDVWGQGTRVTVSS VL: not shown",,,binds
